From patent US20250346678A1 (AP BIOSCIENCES, published 2025)

T1: human OX40 expressed on cells (human, UniProt P43489 29-277)
T1 construct: whole, on cells; also called OX40 expression HEK293 cells
T1 sequence (looked up): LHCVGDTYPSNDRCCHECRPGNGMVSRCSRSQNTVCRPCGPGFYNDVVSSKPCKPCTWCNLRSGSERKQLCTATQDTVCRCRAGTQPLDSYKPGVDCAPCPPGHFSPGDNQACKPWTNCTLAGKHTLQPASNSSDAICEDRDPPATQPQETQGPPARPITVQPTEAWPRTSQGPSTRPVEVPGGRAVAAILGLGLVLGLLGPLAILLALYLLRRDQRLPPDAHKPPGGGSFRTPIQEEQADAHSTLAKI


Legend:
[1] = target: T1, human OX40 expressed on cells; experiment: phage display selection and cell-based ELISA screening
Protocol: (§1) For the generation of therapeutic antibodies against PD-L1 or OX40, selections with the OmniMab phagemid library were carried out. The phagemid library is generated by AP Biosciences Inc. (APBio Inc.) from a collection of over hundred health donors B cells. Phages for the 1st round of pannings were prepared by Hyperphage (M13K07ΔρIII, Progen, Heidelberg, Germany). Solid phase panning and cell panning against PD-L1 or OX40 were applied for PD-L1 or OX40 specific binder selection and isolation from OmniMab library. […] Bound phages were detected by HRP conjugated anti-M13 antibody (Roche) and TMB substrate was used for signal development. The OD₄₅₀ readings were recorded. The positive binders were isolated and sent for sequencing to confirm the sequence and diversity of heavy chain and light chain.

[2] = target: T2, human PD-L1 expressed on cells (human, UniProt Q9NZQ7 19-290); experiment: flow cytometry on stable PD-L1 expression 293 cells, IFN-γ stimulated A549 or WiDr
T2 construct: whole, on cells; also called PD-L1 expression HEK293 cells
T2 sequence (Q9NZQ7 19-290): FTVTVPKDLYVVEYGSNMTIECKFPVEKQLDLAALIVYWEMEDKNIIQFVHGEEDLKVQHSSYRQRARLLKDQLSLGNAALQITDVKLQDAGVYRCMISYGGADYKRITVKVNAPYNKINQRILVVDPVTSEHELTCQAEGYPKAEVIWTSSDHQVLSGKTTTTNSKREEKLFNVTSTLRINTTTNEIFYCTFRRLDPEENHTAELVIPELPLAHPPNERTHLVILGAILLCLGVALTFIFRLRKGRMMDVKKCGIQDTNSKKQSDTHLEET
Text: The bound antibody fusion proteins were detected with Alexa-488 conjugated goat anti-human IgG (H+L) followed by FACS analysis. Isotype antibody was used as negative control for the test.

human PD-L1 = target: T3, human PD-L1 (human, UniProt Q9NZQ7 19-238, limits assumed); experiment: direct ELISA
T3 construct: also called recombinant PD-L1
T3 sequence (Q9NZQ7 19-238 limits assumed): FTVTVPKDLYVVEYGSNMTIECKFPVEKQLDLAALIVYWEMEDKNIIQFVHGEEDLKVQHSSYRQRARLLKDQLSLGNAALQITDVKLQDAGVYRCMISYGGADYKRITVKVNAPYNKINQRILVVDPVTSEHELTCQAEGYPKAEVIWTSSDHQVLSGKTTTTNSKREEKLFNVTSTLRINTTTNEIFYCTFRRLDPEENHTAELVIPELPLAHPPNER

[3] = target: T4, human PD-L1 IgG1 Fc chimera (human, UniProt Q9NZQ7 19-238, limits assumed); experiment: phage display selection and direct ELISA screening
T4 construct: Made by APBio; also called PD-L1-Fc; recombinant human PD-L1-Fc
T4 sequence (Q9NZQ7 19-238 limits assumed, change not shown): as the sequence (Q9NZQ7 19-238 limits assumed) above
Protocol: as §1

| Binder | binding result [1] | other results |
| --- | --- | --- |
| OM-OX40-B17 (Fab, V domains shown, Fab from the phage library; variable regions identical to those of OX40 clone B17) VH: EVQLVESGGVVVQPGGSLRLSCAASGFTFDDYTMHWVRQAPGKGLEWVSLISWDGGSTYYADSVKGRFTISRDNSKNSLYLQMNSLRTEDTALYYCASIYDPPPGSRSALDAFDIWGQGTMVTVSS VL: SYVLTQPPSVSVTPGKTARIACGGNNLESKIVSWYQQKPGQAPVLVIFYDTDRPSGISERFSGSNSGNTATLTISRVEAGDEADYYCQVWDSNSDHVIFGGGTKLTVLG | binds |  |
| OM-OX40-B19 (Fab, V domains shown, Fab from the phage library; variable regions identical to those of OX40 clone B19) VH: EVQLVESGGGLVKPGGSLRLSCAASGFTFSSYSMNWVRQAPGKGLEWVSSISSSSRYIYYADSVKGRFTISRDNAKNSLYLQMNSLRAEDTAVYYCARQNEDVAFGIWGQGTMVTVSS VL: SYVLTQPPSVSVTPGKTARIACGGNNLESKIVSWYQQKPGQAPVLVIFYDTDRPSGISERFSGSNSGNTATLTISRVEAGDEADYYCQVWDSNSDHVIFGGGTKLTVLG | binds |  |
| anti-PD-L1 antibody clone 6 (antibody, human IgG4 S228P, lambda, V domains shown, also called PD-L1 clone 6; PD-L1-Clone 6) VH: QVQLVQSGAEVKKPGSSVKVSCKASGGTFRRYSISWVRQAPGQGLEWMGGIIPVFGAAKYAQKFQGRVTITADEFTSTAYMELSSLTSEDTAVYYCALSGDSDAFDIWGQGTMVTVSS VL: not shown |  | binding result [2]: binds; binding result (human PD-L1): binds |
| OM-PD-L1-6 (Fab, V domains shown, Fab from the phage library) VH: QVQLVQSGAEVKKPGSSVKVSCKASGGTFRRYSISWVRQAPGQGLEWMGGIIPVFGAAKYAQKFQGRVTITADEFTSTAYMELSSLTSEDTAVYYCALSGDSDAFDIWGQGTMVTVSS VL: not shown |  | binding result [3]: binds |
| OM-OX40-A4 (Fab, V domains shown, Fab from the phage library) VH: QVQLVESGGGLVQPGGSLRLSCAASGFTFSSYEMNWVRQAPGKGLEWVSYISSSGSTIYYADSVKGRFTISRDNAKNSLYLQMNSLRAEDTAVYYCARGGVGDAFDIWGQGTMVTVSS VL: QSALTQPPSASGSPGQSVTISCTGTSSDVGGYNYVSWYQQHPGKAPKLMIYEVSQRPSGVPDRFSGSKSGNTASLTVSGLQAEDEADYYCSSYAGSNNLGVFGGGTKLTVSS | binds |  |
